Experimental data from patent US20030129193A1 (priority 2001, published 2003).

How the values were obtained:
[1] = tested on: Mouse bEnd.3 endothelial cells; experiment: PS induction by H2O2; format: cell-based
Procedure: Mouse bEnd.3 endothelial cells were seeded at an initial density of 50,000 cells/well. Twenty-fours later cells were incubated with increasing concentrations of H2O2 (from 10 μM to 500 μM) for 1 hour at 37° C. or left untreated. At the end of the incubation, cells were washed 3 times with PBS containing 0.2% gelatin and fixed with 0.25% glutaraldehyde. Identical wells were either stained with anti-PS IgM or trypsinized and evaluated for viability by the Trypan Blue exclusion test. For the anti-PS staining, after blocking with 2% gelatin for 10 min., cells were incubated with 2 μg/ml of anti-PS antibody, followed by detection with anti-mouse IgM-HRP conjugate.

[2] = biological target: recombinant, depyrogenated truncated Tissue Factor (amino acids 1-219), secreted into the periplasm of E. coli from vector pswc7 (human) (UniProt P13726); experiment: cell-based or functional assay
[3] = tested on: tissue factor on HUVEC cells; experiment: FACS analysis of tissue factor expression; format: cell-based, human; details: 6 h at 37°; TNFα 500 U/ml, LPS 10 μg/ml, VEGF 1 nM
Procedure: To analyze tissue factor expression on the surface of endothelial cells, HUVEC cells were incubated with TNFα (500 U/ml), LPS (10 μg/ml) or vascular endothelial growth factor (VEGF, 1 nM) alone or in combination for 6 h at 37°. Cells were then detached and stained for surface expression of human tissue factor with a sheep-anti-human tissue factor antibody (Haemochrom, Essen, Germany) and an appropriate FITC-conjugated secondary antibody. Fluorescent cells were detected on a flow cytometer (Becton Dickinson. San Jose, Calif.).

[4] = tested on: citrated mouse or human plasma; experiment: In vitro coagulation assay on A20 cells; format: cell-based; details: for coagulation times versus tTF219 and Factor VIIa at the same concentrations: Factor VIIa at 1 nM or greater; for concentration at which plasma coagulated in 50 seconds: localized on A20 cells via B21-2/10H10; for reduction of coagulation-inducing activity relative to monomer / tTF219: less active
[5] = tested on: HT29 human colorectal carcinoma; experiment: Anti-tumor effects and tumor necrosis, HT29; format: in vivo, BALB/c nu/nu mice; details: small HT29 tumors, single agents, 24 hours
[6] = tested on: factor X; experiment: Factor Xa production assay on A20 cells; format: cell-based; details: Factors II, VII and IX present

Molecule: OO [H2O2]
- cells with PS at the cell surface ([1]; concentrations as low as 20 μM): about 50%
- cells with PS translocation ([1]; concentrations higher than 100 μM, 1 hour): ~90%
- cell viability ([1]; low levels of H2O2 (lower than 100 μM)): 95%

Molecule: Factor VIIa (Sigma) (enzyme)
- Factor Xa generation due to Factor VIIa production on bEnd3 cells; stimulation: 0.5 µg/ml LPS; incubation: tTF-VIIa [2]: 6.25 nkat S2222
- Factor Xa generation due to Factor VIIa production on bEnd3 cells; stimulation: 0.5 µg/ml LPS; tTF-VIIa minus sTF [2]: 3.25 nkat S2222
- Factor Xa generation due to Factor VIIa production on bEnd3 cells; stimulation: TNFα; incubation: tTF-VIIa [2]: 2.93 nkat S2222
- Factor Xa generation due to Factor VIIa production on bEnd3 cells; stimulation: TNFα; tTF-VIIa minus sTF [2]: 1.02 nkat S2222
- Factor Xa generation due to Factor VIIa production on bEnd3 cells; stimulation: medium; incubation: tTF-VIIa [2]: 0.95 nkat S2222
- Factor Xa generation due to Factor VIIa production on bEnd3 cells; stimulation: medium; tTF-VIIa minus sTF [2]: 0.25 nkat S2222
- Factor Xa generation on bEnd3 cells; stimulation: 0.5 µg/ml LPS; incubation: tTF-VIIa [2]: 3.35 nkat S2222
- Factor Xa generation on bEnd3 cells; stimulation: 0.5 µg/ml LPS; tTF-VIIa minus sTF (background subtracted) [2]: 1.35 nkat S2222
- Factor Xa generation on bEnd3 cells; stimulation: 10 µg/ml LPS; incubation: tTF-VIIa [2]: 4.46 nkat S2222
- Factor Xa generation on bEnd3 cells; stimulation: 10 µg/ml LPS; tTF-VIIa minus sTF (background subtracted) [2]: 1.55 nkat S2222
- Factor Xa generation on bEnd3 cells; stimulation: TNFα; incubation: tTF-VIIa [2]: 1.51 nkat S2222
- Factor Xa generation on bEnd3 cells; stimulation: TNFα; tTF-VIIa minus sTF (background subtracted) [2]: 0.84 nkat S2222
- Factor Xa generation on bEnd3 cells; stimulation: medium; incubation: tTF-VIIa [2]: 0.56 nkat S2222
- Factor Xa generation on bEnd3 cells; stimulation: medium; tTF-VIIa minus sTF (background subtracted) [2]: 0.16 nkat S2222

Molecule: VEGF
- tissue factor expression on the surface of HUVEC [3]: upregulated tissue factor expression

B1: tTF219 (G164A): tTF219 with amino acid 164 (Gly) replaced by Ala (protein)
chain: GSGTTNTVAAYNLTWKSTNFKTILEWEPKPVNQVYTVQISTKSGDWKSKCFYTTDTECDLTDEIVKDVKQTYLARVFSYPAGNVESTGSAGEPLYENSPEFTPYLETNLGQPTIQSFEQVGTKVNVTVEDERTLVRRNNTFLSLRDVFGKDLIYTLYYWKSSSSAKKTAKTNTNEFLIDVDKGENYCFSVQAVIPSRTVNRKSTDSPVECMGQEKGEFRE
- coagulation times versus tTF219 and Factor VIIa at the same concentrations [4]: only marginally slower coagulation times
- necrosis in tumor sections [5]: some necrosis

B2: tTF219 (W158R) (protein)
chain: GSGTTNTVAAYNLTWKSTNFKTILEWEPKPVNQVYTVQISTKSGDWKSKCFYTTDTECDLTDEIVKDVKQTYLARVFSYPAGNVESTGSAGEPLYENSPEFTPYLETNLGQPTIQSFEQVGTKVNVTVEDERTLVRRNNTFLSLRDVFGKDLIYTLYYRKSSSSGKKTAKTNTNEFLIDVDKGENYCFSVQAVIPSRTVNRKSTDSPVECMGQEKGEFRE
- coagulation times versus tTF219 and Factor VIIa at the same concentrations [4]: only marginally slower coagulation times

B3: H6-tTF220-cys-C′: tTF219 mutated to encode Ile-Cys after amino acid 219, (His)6 tag (protein)
chain: HHHHHHAMALVPRGSGTTNTVAAYNLTWKSTNFKTILEWEPKPVNQVYTVQISTKSGDWKSKCFYTTDTECDLTDEIVKDVKQTYLARVFSYPAGNVESTGSAGEPLYENSPEFTPYLETNLGQPTIQSFEQVGTKVNVTVEDERTLVRRNNTFLSLRDVFGKDLIYTLYYWKSSSSGKKTAKTNTNEFLIDVDKGENYCFSVQAVIPSRTVNRKSTDSPVECMGQEKGEFRE
- concentration at which plasma coagulated in 50 seconds [4]: 500 pM

B4: H6-tTF221-cys-C′ dimer: chemically conjugated disulfide dimer of H6-tTF221-cys-C′ (protein)
chain: HHHHHHAMALVPRGSGTTNTVAAYNLTWKSTNFKTILEWEPKPVNQVYTVQISTKSGDWKSKCFYTTDTECDLTDEIVKDVKQTYLARVFSYPAGNVESTGSAGEPLYENSPEFTPYLETNLGQPTIQSFEQVGTKVNVTVEDERTLVRRNNTFLSLRDVFGKDLIYTLYYWKSSSSGKKTAKTNTNEFLIDVDKGENYCFSVQAVIPSRTVNRKSTDSPVECMGQEKGEFRE
- reduction of coagulation-inducing activity relative to monomer / tTF219 [4]: 4 fold

B5: tTF220-cys-C′: tTF with Ile-Cys after amino acid 219, without (His)6 tag (protein)
chain: GSGTTNTVAAYNLTWKSTNFKTILEWEPKPVNQVYTVQISTKSGDWKSKCFYTTDTECDLTDEIVKDVKQTYLARVFSYPAGNVESTGSAGEPLYENSPEFTPYLETNLGQPTIQSFEQVGTKVNVTVEDERTLVRRNNTFLSLRDVFGKDLIYTLYYWKSSSSGKKTAKTNTNEFLIDVDKGENYCFSVQAVIPSRTVNRKSTDSPVECMGQEKGEFREIC
- concentration at which plasma coagulated in 50 seconds [4]: 500 pM

B6: H6-tTF219-cys-C′: (His)6 tTF219 with a Cys after amino acid 219 (protein)
chain: HHHHHHAMALVPRGSGTTNTVAAYNLTWKSTNFKTILEWEPKPVNQVYTVQISTKSGDWKSKCFYTTDTECDLTDEIVKVKQTYLARVFSYPAGNVESTGSAGEPLYENSPEFTPYLETNLGQPTIQSFEQVGTKVNVTVEDRTLVRRNNTFLSLRDVFGKDLIYTLYYWKSSSSGKKTAKTNTNEFLIDVDKGENYCFSVQAVIPSRTVNRKSTDSPVECMGQEKGEFREC
- concentration at which plasma coagulated in 50 seconds [4]: 3000 pM

B7: Factor VIIa: recombinant human Factor VIIa (protein)
light: ANAFLEELRPGSLERECKEEQCSFEEAREIFKDAERTKLFWISYSDGDQCASSPCQNGGSCKDQLQSYICFCLPAFEGRNCETHKDDQLICVNENGGCEQYCSDHTGTKRSCRCHEGYSLLADGVSCTPTVEYPCGKIPILEKRNASKPQGR
heavy: IVGGKVCPKGECPWQVLLLVNGAQLCGGTLINTIWVVSAAHCFDKIKNWRNLIAVLGEHDLSEHDGDEQSRRVAQVIIPSTYVPGTTNHDIALLRLHQPVVLTDHVVPLCLPERTFSERTLAFVRFSLVSGWGQLLDRGATALELMVLNVPRLMTQDCLQQSRKVGDSPNITEYMFCAGYSDGSKDSCKGDSGGPHATHYRGTWYLTGIVSWGQGCATVGHFGVYTRVSQYIEWLQKLMRSEPRPGVLLRAPFP
- necrosis in tumor sections [5]: some necrosis

B8: tTF221-cys-C′: tTF with Ile-Phe-Cys after amino acid 219, without (His)6 tag (protein)
chain: GSGTTNTVAAYNLTWKSTNFKTILEWEPKPVNQVYTVQISTKSGDWKSKCFYTTDTECDLTDEIVKDVKQTYLARVFSYPAGNVESTGSAGEPLYENSPEFTPYLETNLGQPTIQSFEQVGTKVNVTVEDERTLVRRNNTFLSLRDVFGKDLIYTLYYWKSSSSGKKTAKTNTNEFLIDVDKGENYCFSVQAVIPSRTVNRKSTDSPVECMGQEKGEFREIFC
- concentration at which plasma coagulated in 50 seconds [4]: 500 pM

B9: IgG-H6—N′-cys-tTF219: one molecule of IgG linked via SMPT to one or two molecules of tTF (conjugate)
chain: HHHHHHAMALVPRGSCGTTNTVAAYNLTWKSTNFKTILEWEPKPVNQVYTVQISTKSGDWKSKCFYTTDTECDLTDEIVKDVKQTYLARVFSYPAGNVESTGSAGEPLYENSPEFTPYLETNLGQPTIQSFEQVGTKVNVTVEDERTLVRRNNTFLSLRDVFGKDLIYTLYYWKSSSSGKKTAKTNTNEFLIDVDKGENYCFSVQAVIPSRTVNRKSTDSPVECMGQEKGEFRE
modifications: left off: large carriers
- reduction of coagulation-inducing activity relative to monomer / tTF219 [4]: 5 fold
- concentration at which plasma coagulated in 50 seconds [4]: 5000 pM
- Xa formation, less active than H6—N′-cys-tTF219 [6]: 2 fold

B10: Fab′-H6—N′-cys-tTF219: Fab′-SS-tTF conjugate (conjugate)
chain: HHHHHHAMALVPRGSCGTTNTVAAYNLTWKSTNFKTILEWEPKPVNQVYTVQISTKSGDWKSKCFYTTDTECDLTDEIVKDVKQTYLARVFSYPAGNVESTGSAGEPLYENSPEFTPYLETNLGQPTIQSFEQVGTKVNVTVEDERTLVRRNNTFLSLRDVFGKDLIYTLYYWKSSSSGKKTAKTNTNEFLIDVDKGENYCFSVQAVIPSRTVNRKSTDSPVECMGQEKGEFRE
modifications: left off: another chain or arm of the molecule; large carriers
- Xa formation relative to H6—N′-cys-tTF219 [6]: as active as H6—N′-cys-tTF219 itself
